According to PMC4664897, “Neurodegenerative disease-associated mutants of a human mitochondrial aminoacyl-tRNA synthetase present individual molecular signatures” (Scientific Reports, 2015):
Changes are numbered by the printed parent chain. Names may count otherwise.

B1: wild-type human mitochondrial aspartyl-tRNA synthetase (mt-AspRS) (enzyme)
chain: IPEFSSFVVRTNTCGELRSSHLGQEVTLCGWIQYRRQNTFLVLRDFDGLVQVIIPQDESAASVKKILCEAPVESVVQVSGTVISRPAGQENPKMPTGEIEIKVKTAELLNACKKLPFEIKNFVKKTEALRLQYRYLDLRSFQMQYNLRLRSQMVMKMREYLCNLHGFVDIETPTLFKRTPGGAKEFLVPSREPGKFYSLPQSPQQFKQLLMVGGLDRYFQVARCYRDEGSRPDRQPEFTQIDIEMSFVDQTGIQSLIEGLLQYSWPNDKDPVVVPFPTMTFAEVLATYGTDKPDTRFGMKIIDISDVFRNTEIGFLQDALSKPHGTVKAICIPEGAKYLKRKDIESIRNFAADHFNQEILPVFLNANRNWNSPVANFIMESQRLELIRLMETQEEDVVLLTAGEHNKACSLLGKLRLECADLLETRGVVLRDPTLFSFLWVVDFPLFLPKEENPRELESAHHPFTAPHPSDIHLLYTEPKKARSQHYDLVLNGNEIGGGSIRIHNAELQRYILATLLKEDVKMLSHLLQALDYGAPPHGGIALGLDRLICLVTGSPSIRDVIAFPKSFRGHDLMSNTPDSVPPEELKPYHIRVSKPTDSKAERAHVMYLE
notes: human mitochondrial aspartyl-tRNA synthetase (DARS2), residues 41-645; linker of 5 residues before the C-terminal 6-His tag; Homodimer; also called WT; WT mt-AspRS; not shown: His6, C-terminal, kept
B2: human mt-AspRS mutant L626Q (enzyme)
chain: B1 chain with L586Q
notes: human mitochondrial aspartyl-tRNA synthetase (DARS2), residues 41-645, LBSL patient mutation 1876T>A (printed as 626Q in the methods, L626Q elsewhere); linker of 5 residues before the C-terminal 6-His tag; Mutation found in LBSL patients; not shown: His6, C-terminal, kept
B3: human mt-AspRS mutant R58G (enzyme)
chain: B1 chain with R18G
notes: human mitochondrial aspartyl-tRNA synthetase (DARS2), residues 41-645, LBSL patient mutation 172C>G (R58G); linker of 5 residues before the C-terminal 6-His tag; Mutation found in LBSL patients; not shown: His6, C-terminal, kept
B4: human mt-AspRS mutant L613F (enzyme)
chain: B1 chain with L573F
notes: human mitochondrial aspartyl-tRNA synthetase (DARS2), residues 41-645, LBSL patient mutation 1837C>T (L613F); linker of 5 residues before the C-terminal 6-His tag; Mutation found in LBSL patients; not shown: His6, C-terminal, kept
B5: human mt-AspRS mutant T136S (enzyme)
chain: B1 chain with T96S
notes: human mitochondrial aspartyl-tRNA synthetase (DARS2), residues 41-645, LBSL patient mutation 406A>T (T136S); linker of 5 residues before the C-terminal 6-His tag; Mutation found in LBSL patients; not shown: His6, C-terminal, kept

How the values were obtained:
[1] = biological target: the molecule itself; assay: SEC + other: SAXS; HPLC-SEC (Agilent Bio SEC-3, 15 °C) directly upstream of the SAXS cell; WT, Q184K and R263Q loaded at 7.4, 10 and 14 mg/ml; mobile phase 100 mM HEPES-Na pH 7.5, 250 mM NaCl, 5% glycerol, 1 mM TCEP; oligomer from Rg and Porod volume of each peak
[2] = biological target: the molecule itself; assay: dynamic light scattering; 2 mg/ml in 100 mM potassium phosphate pH 7.5, 50 mM KCl, 0.1 mM EDTA, 10 mM β-mercaptoethanol, 10% glycerol, 20 °C; hydrodynamic diameter

Protein	stoichiometry N [1]	stoichiometry N [2]
B1	2	
B2		2
B3		2
B4		2
B5		2
